Among the data in CN110684105A are 效价 (ELISA titer, dilution factor) (dilution factor) values, retold here.

This test concerns the target 重组HSP90蛋白 (recombinant HSP90 protein expressed in E. coli BL21 from pET-30a-HSP90) (human) (UniProt P08238). Briefly: indirect ELISA, HSP90 recombinant protein coated at 1 μg/mL, antibody diluted 1:10^3 to 1:10^6, HRP goat anti-mouse.

B1: 抗HSP90单克隆抗体 46-2-C9 (anti-HSP90 monoclonal antibody from hybridoma 46-2-C9, purified from mouse ascites) (antibody, V domains shown)
VH: EVQLQQSGPELVKPGASVKISCKASGYSFTGYYMHWVKQSHVKSLEWIGRINPYNGATSYNQNFKDKASLTVDKSSSTAYMELHSLTSEDSAVYYCARSKKYGNYTWFAYWGQGTLVTVSA
VL: DVQMTQSQKFMSTSVGDRVSVTCKASQNVGTNVAWYQQKPGQSPKALIYSASYRYSGVPDRFTGSGSGTDFTLTISNVQSEDLAEYFCQQYNSYIFTFGSGTKLEIKR
Regarding B1, the 效价 (ELISA titer, dilution factor) (dilution factor) amounted to 100000.
